{
  "source": "patent US20210206859A1",
  "about": "(DRAGONFLY THERAPEUTICS, published 2021)",
  "binders": {"B1": {"name": "Enoblituzumab (MacroGenics, Inc.) parental monoclonal antibody (antibody, V domains shown)", "VH": "EVQLVESGGGLVQPGGSLRLSCAASGFTFSSFGMHWVRQAPGKGLEWVAYISSDSSAIYYADTVKGRFTISRDNAKNSLYLQMNSLRDEDTAVYYCGRGRENIYYGSRLDYWGQGTTVTVSS", "VL": "DIQLTQSPSFLSASVGDRVTITCKASQNVDTNVAWYQQKPGKAPKALIYSASYRYSGVPSRFSGSGSGTDFTLTISSLQPEDFATYYCQQYNNYPFTFGQGTKLEIKR", "notes": "also called parental mAb; B7-H3 parental monoclonal antibody"}, "B2": {"name": "A49MI-F3′-TriNKET-huAb13v1 (bispecific antibody, human IgG1, kappa)", "scFv": "DIQMTQSPSSLSASVGDRVTITCKASQNVGFNVAWYQQKPGKSPKALIYSASYRYSGVPSRFSGSGSGTDFTLTISSLQPEDFAEYFCQQYNWYPFTFGCGTKLEIKGGGGSGGGGSGGGGSGGGGSEVQLQESGPGLVKPSETLSLTCAVTGYSITSGYSWHWIRQFPGNCLEWMGYIHSSGSTNYNPSLKSRISISRDTSKNQFFLKLSSVTAADTAVYYCAGYDDYFEYWGQGTTVTVSSASDKTHTCPPCPAPELLGGPSVFLFPPKPKDTLMISRTPEVTCVVVDVSHEDPEVKFNWYVDGVEVHNAKTKPREEQYNSTYRVVSVLTVLHQDWLNGKEYKCKVSNKALPAPIEKTISKAKGQPREPRVYTLPPCRDELTKNQVSLTCLVKGFYPSDIAVEWESNGQPENNYKTTPPVLVSDGSFTLYSKLTVDKSRWQQGNVFSCSVMHEALHNHYTQKSLSLSPG", "heavy": "EVQLVESGGGLVKPGGSLRLSCAASGFTFSSYSMNWVRQAPGKGLEWVSSISSSSSYIYYADSVKGRFTISRDNAKNSLYLQMNSLRAEDTAVYYCARGAPIGAAAGWFDPWGQGTLVTVSSASTKGPSVFPLAPSSKSTSGGTAALGCLVKDYFPEPVTVSWNSGALTSGVHTFPAVLQSSGLYSLSSVVTVPSSSLGTQTYICNVNHKPSNTKVDKKVEPKSCDKTHTCPPCPAPELLGGPSVFLFPPKPKDTLMISRTPEVTCVVVDVSHEDPEVKFNWYVDGVEVHNAKTKPREEQYNSTYRVVSVLTVLHQDWLNGKEYKCKVSNKALPAPIEKTISKAKGQPREPQVCTLPPSRDELTENQVSLTCLVKGFYPSDIAVEWESNGQPENNYKTTPPVLDSDGSFFLYSWLTVDKSRWQQGNVFSCSVMHEALHNHYTQKSLSLSPG", "light": "DIQMTQSPSSVSASVGDRVTITCRASQGISSWLAWYQQKPGKAPKLLIYAASSLQSGVPSRFSGSGSGTDFTLTISSLQPEDFATYYCQQGVSFPRTFGGGTKVEIKRTVAAPSVFIFPPSDEQLKSGTASVVCLLNNFYPREAKVQWKVDNALQSGNSQESVTEQDSKDSTYSLSSTLTLSKADYEKHKVYACEVTHQGLSSPVTKSFNRGEC", "notes": "also called TriNKET bearing 13v1 B7-H3 targeting domain; B7-H3 TriNKET"}, "B3": {"name": "A49MI-F3′-TriNKET-huM30 (bispecific antibody, human IgG1, kappa)", "scFv": "EIVLTQSPATLSLSPGERATLSCRASSRLIYMHWYQQKPGQAPRPLIYATSNLASGIPARFSGSGSGTDFTLTISSLEPEDFAVYYCQQWNSNPPTFGCGTKVEIKGGGGSGGGGSGGGGSGGGGSQVQLVQSGAEVKKPGSSVKVSCKASGYTFTNYVMHWVRQAPGQCLEWMGYINPYNDDVKYNEKFKGRVTITADESTSTAYMELSSLRSEDTAVYYCARWGYYGSPLYYFDYWGQGTLVTVSSASDKTHTCPPCPAPELLGGPSVFLFPPKPKDTLMISRTPEVTCVVVDVSHEDPEVKFNWYVDGVEVHNAKTKPREEQYNSTYRVVSVLTVLHQDWLNGKEYKCKVSNKALPAPIEKTISKAKGQPREPRVYTLPPCRDELTKNQVSLTCLVKGFYPSDIAVEWESNGQPENNYKTTPPVLVSDGSFTLYSKLTVDKSRWQQGNVFSCSVMHEALHNHYTQKSLSLSPG", "heavy": "B2 heavy", "light": "B2 light", "notes": "also called TriNKET bearing M30 B7-H3 targeting domain; B7-H3 TriNKET"}, "B4": {"name": "A49MI-F3′-TriNKET-Enoblituzumab (bispecific antibody, human IgG1, kappa)", "scFv": "DIQLTQSPSFLSASVGDRVTITCKASQNVDTNVAWYQQKPGKAPKALIYSASYRYSGVPSRFSGSGSGTDFTLTISSLQPEDFATYYCQQYNNYPFTFGCGTKLEIKGGGGSGGGGSGGGGSGGGGSEVQLVESGGGLVQPGGSLRLSCAASGFTFSSFGMHWVRQAPGKCLEWVAYISSDSSAIYYADTVKGRFTISRDNAKNSLYLQMNSLRDEDTAVYYCGRGRENIYYGSRLDYWGQGTTVTVSSASDKTHTCPPCPAPELLGGPSVFLFPPKPKDTLMISRTPEVTCVVVDVSHEDPEVKFNWYVDGVEVHNAKTKPREEQYNSTYRVVSVLTVLHQDWLNGKEYKCKVSNKALPAPIEKTISKAKGQPREPRVYTLPPCRDELTKNQVSLTCLVKGFYPSDIAVEWESNGQPENNYKTTPPVLVSDGSFTLYSKLTVDKSRWQQGNVFSCSVMHEALHNHYTQKSLSLSPG", "heavy": "B2 heavy", "light": "B2 light", "notes": "also called TriNKET bearing Enoblituzumab B7-H3 targeting domain; B7-H3 TriNKET"}, "B5": {"name": "huM30 (Daiichi Sankyo, Inc.) parental monoclonal antibody (antibody, V domains shown)", "VH": "QVQLVQSGAEVKKPGSSVKVSCKASGYTFTNYVMHWVRQAPGQGLEWMGYINPYNDDVKYNEKFKGRVTITADESTSTAYMELSSLRSEDTAVYYCARWGYYGSPLYYFDYWGQGTLVTVSS", "VL": "EIVLTQSPATLSLSPGERATLSCRASSRLIYMHWYQQKPGQAPRPLIYATSNLASGIPARFSGSGSGTDFTLTISSLEPEDFAVYYCQQWNSNPPTFGQGTKVEIK", "notes": "as for B1"}, "B6": {"name": "huAb13v1 (AbbVie Inc.) parental monoclonal antibody (antibody, V domains shown)", "VH": "EVQLQESGPGLVKPSETLSLTCAVTGYSITSGYSWHWIRQFPGNGLEWMGYIHSSGSTNYNPSLKSRISISRDTSKNQFFLKLSSVTAADTAVYYCAGYDDYFEYWGQGTTVTVSS", "VL": "DIQMTQSPSSLSASVGDRVTITCKASQNVGFNVAWYQQKPGKSPKALIYSASYRYSGVPSRFSGSGSGTDFTLTISSLQPEDFAEYFCQQYNWYPFTFGQGTKLEIK", "notes": "as for B1"}},
  "data": [
    {"target": "T1, B7-H3 expressed on human cancer cell lines (786-O, BT-474, HCC1954) (human, UniProt Q5ZPR3 29-534)", "T1 construct": "The assay used B7-H3 expressed endogenously on the cell lines; also called CD276; cell expressed B7-H3", "T1 sequence": "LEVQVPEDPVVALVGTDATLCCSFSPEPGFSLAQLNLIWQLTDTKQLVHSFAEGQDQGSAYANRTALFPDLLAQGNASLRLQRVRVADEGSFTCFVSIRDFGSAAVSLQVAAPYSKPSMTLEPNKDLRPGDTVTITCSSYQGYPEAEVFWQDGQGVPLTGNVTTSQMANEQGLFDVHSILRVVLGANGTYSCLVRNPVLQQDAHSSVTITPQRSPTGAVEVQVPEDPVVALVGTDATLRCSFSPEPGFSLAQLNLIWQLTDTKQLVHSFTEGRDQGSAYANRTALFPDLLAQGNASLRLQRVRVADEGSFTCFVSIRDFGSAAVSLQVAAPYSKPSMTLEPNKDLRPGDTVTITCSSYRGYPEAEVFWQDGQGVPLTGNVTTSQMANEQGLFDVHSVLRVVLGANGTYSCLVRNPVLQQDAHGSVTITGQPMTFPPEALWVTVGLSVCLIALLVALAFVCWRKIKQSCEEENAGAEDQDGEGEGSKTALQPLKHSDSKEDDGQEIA", "assay": "flow cytometry on 786-O, BT-474 and HCC1954 cells, anti-human IgG detection", "experimental": "Human cancer cell lines expressing B7-H3 were used to assess tumor antigen binding of TriNKETs derived from B7-H3 targeting clones. Human breast cancer cell lines BT-474 and HCC1954 and renal cancer cell line 786-O were used to assess binding of TriNKETs to cell expressed B7-H3. Varying concentrations of either TriNKET or monoclonal antibody were allowed to bind cells for 20 minutes on ice, after which cells were washed and the amount of bound TriNKET/monoclonal antibody was measured using fluorophore conjugated anti-human IgG secondary antibody. Cells were then analyzed by flow cytometry and binding MFI to cell expressed B7-H3 was plotted against varying concentration.", "values": [
      {"binder": "B1", "binding result": "binds"},
      {"binder": "B2", "binding result": "binds"},
      {"binder": "B3", "binding result": "binds"},
      {"binder": "B4", "binding result": "binds"},
      {"binder": "B5", "binding result": "binds"},
      {"binder": "B6", "binding result": "binds"}
    ]}
  ]
}
